{
  "source": "paper PMC9453702",
  "about": "“Structure-function analysis of enterovirus protease 2A in complex with its essential host factor SETD3” (Nature Communications, 2022)",
  "molecules": {"B1": {"name": "synthetic actin peptide, residues 66-81, H73L (peptide)", "peptide": "TLKYPIELGIVTNWDD", "notes": "also called actin peptide 66-81 with His73 replaced by leucine; source: synthetic peptide"}, "B2": {"name": "human SETD3, wild type (recombinant, tag cleaved) (enzyme)", "chain": "MGKKSRVKTQKSGTGATATVSPKEILNLTSELLQKCSSPAPGPGKEWEEYVQIRTLVEKIRKKQKGLSVTFDGKREDYFPDLMKWASENGASVEGFEMVNFKEEGFGLRATRDIKAEELFLWVPRKLLMTVESAKNSVLGPLYSQDRILQAMGNIALAFHLLCERASPNSFWQPYIQTLPSEYDTPLYFEEDEVRYLQSTQAIHDVFSQYKNTARQYAYFYKVIQTHPHANKLPLKDSFTYEDYRWAVSSVMTRQNQIPTEDGSRVTLALIPLWDMCNHTNGLITTGYNLEDDRCECVALQDFRAGEQIYIFYGTRSNAEFVIHSGFFFDNNSHDRVKIKLGVSKSDRLYAMKAEVLARAGIPTSSVFALHFTEPPISAQLLAFLRVFCMTEEELKEHLLGDSAIDRIFTLGNSEFPVSWDNEVKLWTFLEDRASLLLKTYKTTIEEDKSVLKNHDLSVRAKMAIKLRLGEKEILEKAVKSAAVNREYYRQQMEEKAPLPKYEESNLGLLESSVGDSRLPLVLRNLEEEAGVQDALNIREAISKAKATENGLVNGENSIPNGTRSENESLNQESKRAVEDAKGSSSDSTAGVKE"}, "B3": {"name": "human SETD3 G361R (recombinant, tag cleaved) (enzyme)", "chain": "B2 chain with G361R"}, "B4": {"name": "human SETD3 Y288P (recombinant, tag cleaved) (enzyme)", "chain": "B2 chain with Y288P"}, "B5": {"name": "human SETD3 Q257A + V266D (recombinant, tag cleaved) (enzyme)", "chain": "B2 chain with Q257A, V266D"}, "B6": {"name": "human SETD3 G361R + F409A (recombinant, tag cleaved) (enzyme)", "chain": "B2 chain with G361R, F409A"}},
  "key": {"[1]": {"target": "2xStrep-tagged catalytically dead CV-B3 2A, expressed in human cells", "test": "FLAG affinity purification with label-free quantitative MS", "conditions": "co-transfected CV-B3 2A; four biologically independent experiments; parent: est. 5.5e7; read off a plot"}, "actin (Homo sapiens)": {"target": "actin (Homo sapiens) (UniProt P60709)", "conditions": "cited from earlier work"}, "[2]": {"target": "coxsackievirus B3 protease 2A with C-terminal His6-tag (for biolayer interferometry)", "test": "biolayer interferometry", "conditions": "parent: 0.0051 s-1"}, "[3]": {"target": "T1, human SETD3, wild type (recombinant, tag cleaved) (human, UniProt Q86TU7 1-594)", "T1 construct": "SETD3, actin histidine methyltransferase, human; codon-optimised gene in vector 2G-T; also called WT SETD3; SETD3 WT; source: E. coli BL21*(DE3), purified (Glutathione Sepharose 4B, TEV digest, His-Trap FF flow-through; Superdex 200 Increase for BLI)", "T1 sequence": "B2 chain", "test": "BLI; competition: His-tagged 2A on Ni-NTA biosensors, 3-fold dilution series of actin peptide (40 nM to 10 µM) with SETD3 constant at 310 nM; 20 mM Tris/HCl pH 8.0, 150 mM NaCl, 5% glycerol, 1 mM DTT; maximum binding against peptide concentration", "conditions": "both partners purified"}, "[4]": {"target": "coxsackievirus B3 (Nancy strain) protease 2A, C107A (recombinant, tag cleaved) (coxsackievirus B3 (Nancy strain))"}, "[5]": {"target": "coxsackievirus B3 protease 2A with C-terminal His6-tag (for biolayer interferometry) (coxsackievirus B3 (Nancy strain))", "test": "BLI; Octet RED384; His-tagged 2A loaded on Ni-NTA biosensors at 20 µg/ml, SETD3 variants in solution at several concentrations; 20 mM Tris/HCl pH 8.0, 150 mM NaCl, 5% glycerol, 1 mM DTT; global fit with Rmax unlinked"}},
  "note": "Residue numbers refer to the chain shown, from its start. Names and notes keep the numbering of the source.",
  "data": [
    {"molecule": "FLAG-tagged SETD3, wild type, expressed in human cells (from UniProt Q86TU7) Q257A; V266D", "values": [
      {"measurement": "response", "setting": "[1]", "value": "1.7e+06"}
    ]},
    {"molecule": "FLAG-tagged SETD3, wild type, expressed in human cells (from UniProt Q86TU7) Q257A; V266D; Y288P", "values": [
      {"measurement": "response", "setting": "[1]", "value": 900000}
    ]},
    {"molecule": "FLAG-tagged SETD3, wild type, expressed in human cells (from UniProt Q86TU7) Q257A; V266D; Y288P; G361R", "values": [
      {"measurement": "response", "setting": "[1]", "value": 450000}
    ]},
    {"molecule": "SETD3 (from UniProt Q86TU7)", "values": [
      {"measurement": "Kd", "setting": "actin (Homo sapiens)", "value": 170, "unit": "nM"}
    ]},
    {"molecule": "human SETD3, wild type (recombinant, tag cleaved) (from UniProt Q86TU7) G361R", "values": [
      {"measurement": "koff", "setting": "[2]", "value": 0.0116, "unit": "s⁻¹"}
    ]},
    {"molecule": "human SETD3, wild type (recombinant, tag cleaved) (from UniProt Q86TU7) G361R; F409A", "values": [
      {"measurement": "koff", "setting": "[2]", "value": 0.0131, "unit": "s⁻¹"}
    ]},
    {"molecule": "human SETD3, wild type (recombinant, tag cleaved) (from UniProt Q86TU7) Q257A; V266D", "values": [
      {"measurement": "koff", "setting": "[2]", "value": 0.45, "unit": "s⁻¹"}
    ]},
    {"molecule": "human SETD3, wild type (recombinant, tag cleaved) (from UniProt Q86TU7) Y288P", "values": [
      {"measurement": "koff", "setting": "[2]", "value": 0.32, "unit": "s⁻¹"}
    ]},
    {"molecule": "B1", "values": [
      {"measurement": "IC50", "setting": "[3]", "value": "1500 to 3400", "unit": "nM"}
    ]},
    {"molecule": "B2", "values": [
      {"measurement": "2A protease activity towards a FRET peptide of the VP1-2A cis-cleavage site; catalytically active WT 2A alone against its complex with WT SETD3", "setting": "[4]", "value": 1.5, "unit": "fold"},
      {"measurement": "kcat/Km of catalytically active WT 2A in complex with WT SETD3 towards a FRET peptide of the VP1-2A cis-cleavage site (1.5 mM^-1 min^-1 for 2A alone)", "setting": "[4]", "value": 38, "unit": "M⁻¹ s⁻¹"},
      {"measurement": "Kd", "setting": "[5]", "value": 47, "unit": "nM"}
    ]},
    {"molecule": "B3", "values": [
      {"measurement": "Kd", "setting": "[5]", "value": 110, "unit": "nM"}
    ]},
    {"molecule": "B4", "values": [
      {"measurement": "Kd", "setting": "[5]", "value": 2500, "unit": "nM"}
    ]},
    {"molecule": "B5", "values": [
      {"measurement": "Kd", "setting": "[5]", "value": 10000, "unit": "nM"}
    ]},
    {"molecule": "B6", "values": [
      {"measurement": "Kd", "setting": "[5]", "value": 132, "unit": "nM"}
    ]}
  ]
}
